According to article PMC5057043:

Experiments:
[1] = biological target: Frizzled-10 (microscale thermophoresis) (UniProt Q9ULW2); assay: MST
[2] = biological target: Frizzled-7 (microscale thermophoresis) (UniProt O75084); assay: MST

Human OLFM4 protein, sequence (Q6UX06 21-510): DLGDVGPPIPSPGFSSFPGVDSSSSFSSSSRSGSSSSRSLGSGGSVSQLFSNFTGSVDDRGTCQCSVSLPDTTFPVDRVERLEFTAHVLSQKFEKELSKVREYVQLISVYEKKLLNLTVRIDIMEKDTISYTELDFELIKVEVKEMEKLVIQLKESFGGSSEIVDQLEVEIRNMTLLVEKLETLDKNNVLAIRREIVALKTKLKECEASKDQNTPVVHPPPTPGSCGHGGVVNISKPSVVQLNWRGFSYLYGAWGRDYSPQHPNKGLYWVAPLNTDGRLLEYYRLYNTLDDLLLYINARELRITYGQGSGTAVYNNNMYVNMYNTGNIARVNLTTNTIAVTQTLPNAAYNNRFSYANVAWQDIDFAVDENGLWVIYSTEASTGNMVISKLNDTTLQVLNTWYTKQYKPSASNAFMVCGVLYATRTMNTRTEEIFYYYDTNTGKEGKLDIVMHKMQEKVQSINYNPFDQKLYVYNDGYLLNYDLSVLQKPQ
Frizzled-10 (microscale thermophoresis), sequence (Q9ULW2 21-581): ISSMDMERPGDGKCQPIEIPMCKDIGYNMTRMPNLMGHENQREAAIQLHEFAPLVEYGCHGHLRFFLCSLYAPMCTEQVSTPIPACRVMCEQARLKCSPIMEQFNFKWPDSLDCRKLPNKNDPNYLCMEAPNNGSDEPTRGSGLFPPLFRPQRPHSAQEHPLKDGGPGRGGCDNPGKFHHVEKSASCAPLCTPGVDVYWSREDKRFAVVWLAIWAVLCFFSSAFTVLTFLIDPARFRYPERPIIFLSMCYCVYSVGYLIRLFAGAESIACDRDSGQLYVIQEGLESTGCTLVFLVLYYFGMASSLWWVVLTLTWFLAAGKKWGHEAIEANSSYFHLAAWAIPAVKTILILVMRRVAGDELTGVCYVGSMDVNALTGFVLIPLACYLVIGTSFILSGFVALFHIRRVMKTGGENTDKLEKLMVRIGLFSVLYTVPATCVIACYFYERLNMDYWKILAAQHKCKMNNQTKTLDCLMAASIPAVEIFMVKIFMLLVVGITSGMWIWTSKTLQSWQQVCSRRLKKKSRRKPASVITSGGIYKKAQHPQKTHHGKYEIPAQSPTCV

Kd [1]: 10 µM
Kd [2]: 2.5 µM
Substance: Human OLFM4 protein (from UniProt Q6UX06 21-510) (natural protein)
